Our source for the protein production values is a protein production outcome set (Wang et al. 2014).

The nature of the data set: label from the status in PepcDB records.
In the case of “MPSLTTLRSRELGPETFIPYVRHVDESTIALDSRALMVMIALEGVSFETADILDLNALHRDLNTLYRNIADERLALWTHLIRRRDNSYPEGTFATPFSAALNDKYRERMVGEDLFRNDLYLSILWSPARDPADKAAKLLSRLRRARRVGTELDEGALKHLRDKVIDVTAALRRFEPRVLTLYEHDGLMFSEPSEVLHQLVGGRREPIPLTEGHIASAIYSDRVIVGRETIEIRHEADSRYAGMLSFKEYPARTRTGMLDAVLTSPFELILAQSFSFVSKADARMIMGRKQNQMVSSGDKAASQIEELDGAMDDLESNRFVFGEHHLTLSVFAPSVKELTDNLAKARASMTSGGAVVAREDLGLEAAWWAQLPGNFRYRARSGAITSRNFAALSPFHSYPLGQKDGNEWGPAVALLKTASGSPYYFNFHYGDLGNTFVCGPSGAGKTVLLNFMLSQLEKHDPHVVFFDKDRGADLYVRAAGGTYLPLKNGIPTGCTPLKALELTPENKVFLTRWVGKLVGSATRELSVTELRDISSAIDGLADLPVERRTIGALRTFLDNTNPEGIAARLRRWERGGPLGWVFDNVIEDIGFGEFGGGKLVGYDMTDFLDNEEIRAPLMAYLFHRVEQLIDGRRIIIVIDEFWKALQDEGFRDLAQNKLKTIRKQNGLMLFATQSPRDAIVSPIAHTIIEQCPTQIFLPNSRGNHGDYVDGFKLTEREFELVARELSIESRRFVLKQGHNSVVAELDLKGLDDELAILSGRTANVELADAIRAEVGSNAKDWLPVFQQRRSATLEHHHHHH”, the protein production entry is “failed”.

Consider “MPSPTVTSPQVAVNDIGSSEDFLAAIDKTIKYFNDGDIVEGTIVKVDRDEVLLDIGYKTEGVIPARELSIKHDVDPNEVVSVGDEVEALVLTKEDKEGRLILSKKRAQYERAWGTIEALKEKDEAVKGTVIEVVKGGLILDIGLRGFLPASLVEMRRVRDLQPYIGKEIEAKIIELDKNRNNVVLSRRAWLEQTQSEVRSEFLNNLQKGTIRKGVVSSIVNFGAFVDLGGVDGLVHVSELSWKHIDHPSEVVQVGDEVTVEVLDVDMDRERVSLSLKATQEDPWRHFARTHAIGQIVPGKVTKLVPFGAFVRVEEGIEGLVHISELAERHVEVPDQVVAVGDDAMVKVIDIDLERRRISLSLKQANEDYTEEFDPAKYGMADSYDEQGNYIFPEGFDAETNEWLEGFEKQRAEWEARYAEAERRHKMHTAQMEKFAAAETAGRGADDQSSASSAPSEKTAGGSLASDAQLAALREKLAGSALEHHHHHH”, for which the protein production entry is listed as “failed”.

On to “MPSQKPIIVSKTSAAASSSSDRLRIIPLGGLHEIGKNTCIYEVGDEILLVDAGLAFPTDGMHGVNVVLPDMTYLRENQHRIKAMVVTHGHEDHIGGIPFHLRQLDIPIIYGPRLAMALLAGKLEEAGVVGRANVKTVQPREVVRIGQNFLVEFIRNTHSIADSFTLAIRTPLGVVIHTGDFKFDHTPVDGETFDIQRLADYGEQGVLCLVSDSTNAELPGFTPSERSVFPNLDRAFSQAQGRLIVTTFASSVHRVNMILELAKKHGRKVTVLGRSMLNVIAHARNLGYIHCSDDLFLPPKELRDHPDRDVLILTTGSQGEPLAALTRIARQEHPQVKIRQGDTVIFSANPIPGNTISVVNTIDQLMMQGAHVVYGKGAGIHVSGHGCQEDQKLMIALTKPKFFVPVHGEHRMLVQHCKTAQSMGVPPEHMIVIDNGDTVELTPESIGLGDRVTAGIELVDTSRTGLVDGKALKERQQLAEDGLVSLSALVNSQGQLVDAPTVHLRGVVTSADPRRVSVWAQKEVEMALDNRWADYCRRLPSGELDVDWVGLHAEVEVGMQRRLKRELQCVPMILCTLQSVPSVAAQPAEEDNRMRRRRSSAPIKVGAKL”, for which the protein production entry is reported as “failed”.

Regarding “MPSRKFADGEVVRGRWPGSSLYYEVEILSHDSTSQLYTVKYKDGTELELKENDIK”, the protein production entry is recorded as “not failed”.

Regarding “MPSRQLQILIRKTLPLVPDHVLIIGESGIAFSKATNLLGQEFEHILFDGRNGIHLEALAIAAGTLKMGGTLCLVLSDWENLSQQPDQDSLRWNGNQSAIATPNFIYHFKQCIERYHFPILREESAVEFPTVFYSNEHHKNATLAQQQIIENILQAEQDIYFLTAKRGRGKSALLGMLANQIQAPVYLTAPNKSAVHSVIEFSEGDIEFIAPDELALTLQTEPEFSQSAWLLVDEAAMIPLPLLQEYSRYFQHIVFSTTIHSYEGTGRGFELKFKRKIHRTFQHFELKQPLRWQENDPLEHFIDDLLLLNAEDDFQHFDYSNITYNIEENAKNLSFPCLRGKVPEGPKGGFRYS”, the protein production result was “failed”.

Turning to “MPSSFNVESADGYERLMGRWSRKLAPMLIDFAGLADGDRVLDVGCGTGSLAFTLAETSGLQEIAAVDYSPVFVEAATRRNTDPRVSIRQADACALPFEDDRFDRAMSLLVLHFVPEAGKAVSEMRRVVRPGGVVAAAVWDHYGGMSGMRMMWDTVAMLDEGALPLRRKYCFQPMMRPGEMKESFIAQGLADVEETSLLIRMEYVSFADYWEPIAAGEGPLGKYVAGLDPAKRKAVDAAMRAAYEAGEPDGPRSFAAVAWACRGRVPGQS”, the protein production entry is “failed”.

On to “MPSSMLSHDPVLTWSIVALATAGVIIRPMRWPEAVWAVAGAVALVALGLLSWQDALAGVRNGIDVYLFLIGMMLIAELAQREGLFDYLAAYAVEHARGSPQRLFLLVYAVGVLVTVLLSNDATAIVLTPAVYAATRAAGAAPLPYLFVCAFIANAASFVLPISNPANLVVFGEHMPHLGGWLQQFTLPSLAAILATYLVLRLALRRSLAGQTIETRVETPHLSRGGKLAAVGIGAIAIVLLTASALNVALGLPTFVCGLVTTAVVLAIARQSPVPVLKGVSWSVVPLVAGLFVMVEALSRTGVIGALGGLLREAVADAPRLGSWAAGIVTAIACNIGNNLPVGLVAGSVAADNHLPRETIAALLIGVDLGPNFSVTGSLATILWLVVLRRNQIEVTAWRFLKLGLVVTPPALIAALAAAVW”, for which the protein production entry is given as “failed”.

Take “MPSTLQGTFHTYRIIRRLGQGAFGEVSLAGVLETGEVVALKRIHIRNTGGIPDVVVREIKALQSVSHPNVVALLDVFPKGQAIYLVQEYCTTDLAALLRRLPAPPPERIAKGLMLQLCRGLEALHAEGIMHRDVKPSNTLLSAASGTAKLADCGLARPLDGGERPAYTHAVATRWYRAPELLYGARAYGPAVDVWALGLVFAELLGLSPLVPGDNDIDQLGRVIATFGSMEPVWLGVRALPDWGKIAFPHCEPLPLGDLLPGAPAAALEFLAAFLRYDPAKRITAACAVRSTYLTATQPL”: the protein production entry is “failed”.

As to “MPSTQSLTVAAKTLRNRIFSRSGSTSAGPSRWATPGHEERPKGYFMNRTPPAPGQSRKWEDWELPCYITSFLTIVILGVGLNAKPDLSIETWAHQKALERLEMEKLATAGDSSD”, the protein production entry is listed as “failed”.

Take “MPTIFQIPTFIQILEFIGTFAFAISGIRLASAKQFDWFGAYVAGVAVAIGGGTIRDVLLDVTPFWMTNPIYLICSALALLWVIFFRKHLIHMHNTFFIFDSIGLALFTVVGISKTIDLGYAFWVAIIMGTMTGAAGGVIRDVFINEIPLIFRKEIYAMACVIGGVIYWGLDRFGVDAALTQVISGCCIFVVRALAVKYQICLPILKGE”: the protein production result is “failed”.

Consider “MPTINQLIRKERKKVVKKTKSPALVECPQRRGVCTRVYTTTPKKPNSALRKVAKVRLTSKFEVISYIPGEGHNLQEHSIVLVRGGRVKDLPGVKYHIVRGALDTAGVNKRTVSRSKYGTKKAKATDKKATDNKKK”, for which the protein production entry is listed as “failed”.

For “MPTKKMTRAQTCPHQTTVISNLKIIPLTLGWLLKSALLIIIIAVFIPLSPKMPAPGLDASWAVGLNQAVAQGLAFGKDIFFTLGPYSSIYTKFYHPATDFMMVGGSLYLALCYWIAIILLMQGIKWRWSIAFAILLFSMIYARDSLFFSYSLIIGLLIHKEISGKETSFKSNFCTLFALLFTPFGLFPLIKGSLLILSIITVLLCSLFLILYKQRNLAVLCLASPVVSILFFWIASGQSIFNLPAYVSNTILLASGFTEAMAIEGDNKELIFFGVTSSCILLSILLQKQLSPLSKAFLFCIYLVFLFLSYKTGFTRHFGHAFIAGTSVLLASFLLPYFNSNNKVIVPLLALSLYTASYINGHYTKISVRDNFISTYTAAYYGLKNRIQNKNWLKENFSLTMNYLKARDDFPRLPGTTDIYSYNQTSLIASGMTWSPRPIFQSYSVFTAKMAEINTNYLLSENKPDNILFKVEPIDNRIPSMEDGMSWPILINHYQPVRLENDFLFLRKKLVNKPVTSLVPLKTEIHTFGEQVKIPDTDKSLFVEIDIQPTLWGMLATTFFKPHQLEANLELKNGTQRQYRLISNMAKSGFLLSPFIENSAEFGLLFSQNNYLAGKKVISFSINSKQVPSSHWQTKYTIHYKTFASNN”, the protein production entry is “failed”.

On to “MPTTDLRKAQLQIHFCVLLWGITAILGKLITLQALPLVWWRMLIVVVALALWPRVWRGLRGLSGRVVLGYCGIGALVALHWLTFYGAIKLANASVAATCIALAPVFTAVIEPLVTHRPFRPRELLFGLAVLPGVALVVGGVPDGMRAGVVVGAISAVFVGLFGSLNKRMVAHADPLTVTALELGAGTLTLTLLAPAMPLLLPALHGDLLVVPSLHDGVLLLALSLACTLLPFALALVALRHLSAYSVQLVTNLEPVYAIVLAIALLGEQRELTLQFYLGVAIILGAVFLHPVLERRRTVAHPELLGTAEAKNIVD”, for which the protein production entry is listed as “failed”.

As to “MPTTQLHHHYVLCGWHVRSALTLPELPPWSATATPVDADVVIEEGEVPDRLDLHDPVESWLSVGRDGSVLLQVPQVVRIHVHAGRAMRVQRLNRHDESWRLFLLGSALGYLCLQRSLFPLHAACLRIGTQTVAFAGHSGAGKSTLAAALLKRGHGLLSDDLTVIRLDSAGAIMVLPAFPRLKLWRDTLESLQLPVTDAPPVRPGMEKFDLRPSAGFDAAPVRLDAVVVLGDASEPHLQRLSPQHALPLLHGYLARPQAAVRMGLHAATFAHAAAIARQVPVWRLRRPRRFDALDITVDLIEAHVGALEHHHHHH”, the protein production entry is recorded as “failed”.

Consider “MPTVKLTKNITIMTGSPNTLIYDNRVVIDLGGKNSSVDINAEVQLATHGHADHIAGLLKKDAKIRYLPKEDYWSLTLMGRRAMIYGCSSKDSDIFTFDYVKENIESIDIEVRTSEIEVIKLPGHTPGHSGYIVDNVLYAGDAFFGEKVLEGFSVPFYTDFWTALESLNKVKELAKSVNNIVISHGPVYTNKNKMVSILESNIIYAQNLIGKILDMLSNNELTVEEIVVKLKQDLTPSNVLLNSVVVRSILFGLENIEYNVSQKGLVFRRRVH”, for which the protein production entry is recorded as “failed”.

With “MPVAISLPTSSTSHFFPRRRGHANHRYQRFSGAQSSTEDPYIRKNQTGVIIIGAGLAGLAAANQLTSKRIPFLLLEASDGVGGRVRTDIVDGFFLDRGFQIFITAYPEAKKLLDYEALDLQRFYAGAKVFYGGKFHTVADPLRHFWDSVASLANPIGSVVDKGLIALTRARVLIKSDEEILTAADEVPTIDLLRKIGFSETILDRFFRPFFGGIFFDRDLETTSKLFDFVFRCLALGENTLPAMGIGEISNQLAAKLPAKSVLLNTRVASIEYPNGSGSDPPSVRLQDGSVMKAELGVIIAVEQPEVNKLLDGIRDPVITKPARSTICLYFTAEPNQIPVQDPVLFLNGSNSGIINNMFFATNVARTYAPPGKALVSVSLIGLFEDRTDDDLAAEVLRELSGWFGESPVMSWKHLKTYRIQFAQPNQCPPTDLVKSPRVGSGLYLSGDYMTSATFDGALVSGRRAVEVLLRETGLIK”, the protein production result is “failed”.

In the case of “MPVFRRHASQNCASIPPMMLFKRPDTETLYFALVNKDPAYEGVAYVCVTSTKIFCRFTCTARKPKIENCRFRETITECLEAGFRPCKRCKPMLSYGTPDGTVTALLTALENEPARRWREEDVVALGHDPSTVRRSFKRRFGMSFLEIARLRRVGDAAESLASGEAVIGAQIDAGYESGSGFRSAINQLFGTSPAAMKGRGFLKGDWIDTPIGPMLAVADDHALHLLEFADRPALPAELKRLKARTGADMVLGRTAVTGQIAAELAAYFAGRSGSFETRLAGHGTPFERDVWRNLREIPAGEIVSYSSLATAMERPTAVRAVARANGANQLAIVVPCHRVLGADGSLTGYGGGLWRKKWLIEHERRMARGQMLGMPLASLEHHHHHH”, the protein production entry was “failed”.
